Reference: patent US20040180342, “Multimers of S. solfataricus single-stranded DNA-binding protein and methods of use thereof” (REGENTS OF THE UNIVERSITY OF CALIFORNIA, published 2004)

Columns and labels:
[1] = molecular target: T1, SsoSSB (S. solfataricus SSB, SSO2364) (Sulfolobus solfataricus, UniProt Q97W73 SEQ:1-148); experiment: competition; settings: linear pUC19 at 100-fold molar (nucleotide) excess did not alter shift of 63-mer; 75 C
T1 sequence: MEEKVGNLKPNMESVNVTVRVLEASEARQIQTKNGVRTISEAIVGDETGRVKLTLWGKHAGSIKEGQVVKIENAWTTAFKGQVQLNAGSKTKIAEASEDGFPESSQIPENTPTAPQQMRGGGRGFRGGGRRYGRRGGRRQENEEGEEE

[2] = molecular target: T1, SsoSSB (S. solfataricus SSB, SSO2364); experiment: EMSA; 10 uM nucleotides, constant mobility reached at 2 uM protein; saturation about 1 SSB per 5 nt; non-cooperative; 75 C, 30 mM Tris OAc pH 7.5, 10 mM MgOAc2, 5 mM; settings: tags: untagged, expressed from pET21a in E. coli, heat treated at 80 C; chain copies: 4 (tetramer main form in solution; dimer and monomer also present); label: 5'-32P (T4 polynucleotide kinase end label)
Method: To determine the occluded binding site size of the protein and to evaluate the activity of the SsoSSB protein, we performed acrylamide gel mobility-shift assays with a radioactively labeled single-stranded oligonucleotide that was 63 nucleotides in length (FIG. 5). When a fixed quantity of radiolabeled oligonucleotide was incubated with increasing quantities of protein, a band of reduced mobility was observed. The apparent mobility further decreased upon addition of more protein, finally achieving a constant mobility after the addition of 2 μM protein. The absence of discrete species implied rapid equilibration between bound and free forms of the complexes, and consistent with this possibility, more discrete species were visualized when electrophoresis was performed more rapidly (at high voltage). […] The M. jannaschii RPA protein has a site size of 15 to 20 nucleotides (Kelly, T. J. et al., Proc Natl Acad Sci USA 95:14634-14639 (1998)) whereas the site size of E. coli SSB protein, depending on solution conditions, varies from 8 to 16 nucleotides per monomer. The apparent site size of SsoSSB protein is similar to the 7 nucleotide site size observed for phage T4 SSB protein, gp32. […] The observed band-retardation pattern is likely the result of a combination of this non-cooperative binding and rapid equilibration of protein-DNA complexes during electrophoresis.

**Q.** Which fold lower affinity than ssDNA (competition) (fold lower affinity than ssDNA) [1] does the source give for linearized pUC19 here?
**A.** Its fold lower affinity than ssDNA (competition) (fold lower affinity than ssDNA) is greater than 100.

B1: 63-mer oligonucleotide (ssDNA)
DNA: ACAGCACCAATGAAATCTATTAAGCTCCTCATCGTCCGCAAAAATATCGTCACCTCAAAAGGA
**Q.** Does B1 bind [2]?
**A.** Result: binds
